The series addresses T1, PamR (YdcH) (Bacillus subtilis 168) (UniProt P96625).
T1 sequence: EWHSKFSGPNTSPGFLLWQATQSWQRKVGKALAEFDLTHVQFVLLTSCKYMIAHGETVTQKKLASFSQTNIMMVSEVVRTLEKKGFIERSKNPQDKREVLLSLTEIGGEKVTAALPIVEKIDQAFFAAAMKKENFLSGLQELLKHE
Put plainly: EMSA. Particulars: 20 mM NaPO4 pH 7, 50 mM NaCl, 5 mM MgCl2, 10% glycerol, 0.1 ug/ul salmon sperm DNA, 10 min at room temperature; 4% native acrylamide gel.

In the case of “ACCTGACCTATATTCTCGGACAGCTGTCCTAAAAAACCAGAAAAAGAAGCTGGACATCCGGCTTCTTTTTTTTGCGGTTGACTATATTATTCTGCGCTTATTATAATTAATAAGTGAACTTATCATTCTGGGAGCTTATGGGATGTGGAATTATGAATACACAGCGATAGCTGATGTGGATGTGGGAAAACCTGGAACTGTTATCAGGAAACAGAAACAATGGATCAATGGGAGACGGGTATTGCATCAGATTCTTTGAAAGGACAATTTCAAAATGGAACGGAAGGAACATT (double strand) [PydcF IR1* mutant]”, the binding entry is “binds more weakly”.
As for “AATGTTCCTTCCGTTCCATTTTGAAATTGTCCTTTCAAAGAATCTGATGCAATACCCGTCTCCCATTGATCCATTGTTTCTGTTTCCTGATAACAGTTCCAGGTTTTCCCACATCCACATCAGCTATCGCTGTGTATTCATAATTCCACATCCCATAAGCTCCCAGAATGATAAGTTCACTTATTAATTATAATAAGCGCACTTATTAATAGTCAACCGCAAAAAAAAGAAGCCGGATGTCCAGCTTCTTTTTCTGGTTTTTTAGGACAGCTGTCCGAGAATATAGGTCAGGT (double strand) [PydcF wt 293 bp]”, the entry is “binds”.

For the origin of these results see PMC5730154.
